# In the nanobody polyreactivity screen of Harvey et al. (2022):
# Assay: yeast display, Sf9 membrane polyspecificity reagent, FACS + sequencing; frameworks hold sequencing errors
# How it was run: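 Sorting gates, low and high (top ~1%), were placed on anti-HA fluorescence to track expression and on streptavidin fluorescence to track reagent binding. A clone's polyreactivity label is taken from the gate it came out of. The reagent was 10% biotinylated, detergent-solubilized Sf9 membrane, applied for 1 hour at 4 °C to galactose-induced yeast display cells.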
row,Sequence,polyreactivity (PSR sort gate)
1,QVQLVESAGGLVQAGGSLRLSCGASGRIFGWYALGWSRQAPGKERQLVAAITRSGGSTFYADSVKGRFTISRDNAKNTVYLQMHSLKPDDTAVYYCNARYFNGRHKHYYWGQGTQVTVSS,high polyreactivity
2,QVQLVESAGGLVQAGGSLRLSCPASGGISALYAMGWYRQAPGKERELVAAISASGGSTYYADSVKGRFTISRDNAKNTVYLQMNSLKPEDTAVYYCNVAVLTSDIYSTTIYYYGIYDYWGQGTQVTVSS,high polyreactivity
3,QVQLVESAGGLVQAGGSLRLSCSASGSTFSSNGMGWYRKAPGKERELVAAITSVGSTNYADSVKGRFTISRDNAKNTVYLQMNSLKPEDTAVYYCNAERTAYGGGDYWGQGTQVTVSS,low polyreactivity
4,QVQLVESAGGLVQAGGSLRLSSAASGRIFKYNAMGWYRQAPGKERELVAAISSSGARTYYADSVKGRFTISRDNAKNTVYLQMNSLKPEDTAVYYCAVYYYDFTSTEYGYWGLGTQVTVSS,high polyreactivity
5,QVQLVESAGGLVQAGGSLSLSCAASGFTFYRNAMGWYRQAPGQERELVAAISRSGGRTYYADSVKGRFTISRDNAKNTVYLQMNSLKPEDTSVYYCAVYVTRDSGWWLYDYWGQGTQVTVSS,high polyreactivity
6,QVQLVESAGGLVQAGGSLSLSCAASGRIFYSYAMGWYRQAPGKERELVAAISSAGSTYYADSVKGRFTMSRDNEKNTVYLQTNSLKPEDTAVYYCAAYRAGNSYYPRLNYWGQGTQVTVSS,high polyreactivity
7,QVQLVESAGGLVQAGGSLSLSCAASGRIFYYNTMGWYRQAPGKERELVAAISSTASTTYADSVKGRFTISRDNAKNTVYLQMNILKPEDTAVYYCAADHRYHWAYPRGYYYWGQGTQVTVSS,high polyreactivity
8,QVQLVESAGGLVQAGGTLRLSCAASGSIFRTHTMGWYRQAPGKERELVAAITAIGDSTYYADAVKGRFTISRDNAKNTVNRQLHSLKPEDTAVYYCAAEKVSWGYHFYSSYDYWGQGTQVTVSS,low polyreactivity
9,QVQLVESAGGLVQAGVSLRLSCAASGRTFYWYTMGWYRQAPGKERELVAAISSAGSTYYADSVKGRFTISRDNAKNTVYLQMNSLKPEDTAVYSCAAGSHSGRAYYYWGQGTQVTVSS,high polyreactivity
10,QVQLVESAGGLVQARGSLRLSCAASGITFAQYAKGWYRQATGKERELVAGITRSGGSTHYADSVKGRFTISRDNAKYTVYLQMKSLKPEDSAVYYCNARYPYRGKRKPPDYWGQGTQVTVSS,high polyreactivity
11,QVQLVESAGGLVQEGGSLRISCAASGRIFFYYSMGWYRQAPGKERELVAAISQSGGSTYYADSVKGRFTISRDNAKNTVYLQMNSLKPEDTAVYYCNAADPYYDTSAVAGDYWGHGTQVTVSS,low polyreactivity
12,QVQLVESAGGLVQEGGSLRLSCAASGSTFGDNAMGWYSQAPGKERELVAAITSVGTTYYADSVKGRFTISRDNAKNTVYLQMNSLKPEDSAVYDCNADWSWYNYYDFDYWGQGTQVTVSS,low polyreactivity
13,QVQLVESAGGVVQAGGSLRLSSAASGSIFDGNAMGWYRPAPGKERQLVAAISGGGRTYYADSVKGRFTISRDNAKNTVYLQMNSLKPEDTAVYYCAAAYTFYVYGSYKVTFDYWGQGTQVTVSS,low polyreactivity
14,QVQLVESAGVLVQAGGSLRLSCAACGSIFDYYALGWYRQAPGKERELVDTISGGGGTTYYADSVKGRFTISRDNAKNTVYLIMNSLKPEDTAVYYCAADSLGYNYWGQGTQVTVSS,low polyreactivity
15,QVQLVESCGCLVQAGCSLRLSCAASGSTFQGYAMGWYRQAPGKERELVAAITIRGTRTYYADSVKGRFTISRDNAKNTVYLQMNSLKPEDTAVYYCAAYDYRHLEDKYDYWGQGTQVTVSS,high polyreactivity
16,QVQLVESCGGIVQAGGSLRLICAASGRIFDSNAMGWYRQSPGKETELVAAITTSGGSTFYADSVKVRFTISRDNAMNTVYLQMISLKPEDTAVYYCAAGYSFYYHAIFPFDYWGQGNQVTVSS,high polyreactivity
17,QVQLVESCGGLVHAGGSLRLSCAASGRTCVGNVMGWYRQAPGKERELVAAISRSGGNTYYADSVKGRFTISRDNAKNTVYLLMNSLKPEDTAVYYCAKVGLYGPVEYDYWGQGTQVTVSS,high polyreactivity
18,QVQLVESCGGLVQAGGILRLSCAASGFISSENAMGWYRQAPGKERELVAAISSGGSTNYADSVKGRFTISRDNAKNTVYLQMNRLKAEVTAVYYCAATLQGWYHEDESWGQGTQVTVSS,low polyreactivity
19,QVQLVESCGGLVQAGGRLRLSCADYGRTFSWYAMGSYRQAPGKERELVAAITFRGGRTYYADSVKGRFTISRDNAKNTVYIQMNSLKPEDTAVYYFNAVTYSSPYRFDYCGQGTQVTVSS,low polyreactivity
20,QVQLVESCGGLVQAGGSLRISCAASGIIFHLYAMGWYRQAPGKQRELVAAISWNGSSTYYADSVKGRFTISRDYAKNTVYLQRNSLKPEDTAVYYCAASYGYFEDYGYWGHGTQVTVSS,low polyreactivity
21,QVQLVESCGGLVQAGGSLRLICAASGRNFGHNAMGWYRQAPGKEREFVAAITYSGVRTFFADSVKGRFTISRDNAKNTVYLQMNCLKPEDTAVYYCATDWRRYYDYWGQGTQVTVSS,low polyreactivity
22,QVQLVESCGGLVQAGGSLRLSCAASGFIFRIYAMGWYRQAPGKERELVAAITWSGGRTFYADSVKGRFTISRDNAKNTVYLQMNSLKPEDTAVFYCAARGRSSGFGYWGQGTQVTVSS,high polyreactivity

row,Sequence,polyreactivity (PSR sort gate)
1,QVQLVESCGGLVQAGGSLRLSCAASGFIFRSYAMGWYRKAHGKERELVAAISRSGGSTYYADSVKGRFTISRDNAKNTVYLQMNSLKPEDTAVYYCATDGGRSTARGFGHWGQGTQVTVSS,high polyreactivity
2,QVQLVESCGGLVQAGGSLRLSCAASGFIIGYYAMGWYRQAPGKERELVAAISSTGGSTYYADSVKGRFTISRDNAKNNVYLQMNSLKPEDTAVYYCAKRFAYYRYHPGYDYWGQGTQVTVSS,high polyreactivity
3,QVQLVESCGGLVQAGGSLRLSCAASGFTFWRYAMGWYRQAPGKERELVAAISRTGGRTYYADSVKGRFTISRDNAKNTVYLQMNSLKPEDTAVYYCAAVKYETYRYNYDYWGQGTQVTVSS,high polyreactivity
4,QVQLVESCGGLVQAGGSLRLSCAASGGTIVFYAMGWYRQAPGKERELVAAISSSGGSTYYADSVKGRFTISRDNAKNTVYLQMNSLKPEDTAVYYCNTPSYSGSSPYDHWGQGTQVTVSS,high polyreactivity
5,QVQLVESCGGLVQAGGSLRLSCAASGIIFGVYALGWYRQAPGKERELVAAIDGNGSSTSYADSVKGRFSISRDNAKNTVYLQINSLKPEDTAVYYCAAGYWYYLYYCYDFDYWGQGTQVTVSS,low polyreactivity
6,QVQLVESCGGLVQAGGSLRLSCAASGITIDYYAMGWYRQAPGKERELVAAISSVGNTNYADSVKGRFTISRDNAKNTVYLQMNSLKPEDTAVYYCAARAYGQRLYRVWSGYGYWGQGTQVTVSS,high polyreactivity
7,QVQLVESCGGLVQAGGSLRLSCAASGRIFRDYAMGWYRQAPGKERELVATITRSGGRTYYADSVKGRFTISRDNAKNTVFLQMNSLKPEDTSVYYCAATYWTYPYHYQYKYDYWGQGTQVTVSS,high polyreactivity
8,QVQLVESCGGLVQAGGSLRLSCAASGRNFYFNAMGWYRKAPGKERELVARISTGGITNYADSVKGRFTISRDNAKITVYLQMNSLKPEDTAVYYCAADYRRTWRYNYCGQGTQVTVSS,high polyreactivity
9,QVQLVESCGGLVQAGGSLRLSCAASGSIFPFNAMGWYRQAPGKQRELVAAITRSGGSTYYADSVKGRITISRYIAKNSVYLQMNSLKPQDTAVYYCATDPEWPLPAYYYWGQGTQVTVSS,low polyreactivity
10,QVQLVESCGGLVQAGGSLRLSCAASGSIFQSYAMGWYRQAPGKERELVAAITERGGSTYYADSVKGRFTISRDNAKNTVYLQMNSLKPEDTAVYYCAADIYYWWGLSDLYTPTEGDYWGQGTQVTVSS,low polyreactivity
11,QVQLVESCGGLVQAGGSLRLSCAASGSIFRSFAMGWYREAPWKERELVAAISSGGRTKYADSVKGRFTISRDNAKNTVYLQMNSLKPEDTAVYYCAARVNVKYYGFYYWGQGTQVTVSS,high polyreactivity
12,QVQLVESCGGLVQAGGSLRLSCAASGSIFYFNAMGWYREAPGKERELVAAINISGSSTSYADSVKGRFTISRDNAKNTVYLQMNSLKPEDTAVYYCAAEDEPRILIVRVWDYYWGQGTQVTVSS,low polyreactivity
13,QVQLVESCGGLVQAGGSLRLSCAASGSTFTPNAMGWNRQAPGKERELVAAIRGLNGRTYYADSVKGRFTISRDNAKNTVYLQMNSLKPEDTAVYYCAAGGYSYYFAWHDYWGQGTQVTVSS,low polyreactivity
14,QVQLVESCGGLVQAGGSLRLSCAASGSTLYYYAMGWYRQAPGKERELVASISWSGGRTYYADSVKGRFTISRDNAKYTVYLQMNSLKPEDTAVYYCNAVPYRGYDYWGQGTQVTVSS,low polyreactivity
15,QVQLVESCGGLVQAGGSLRLSCAASVSTFLFYAMGWDRQAPRKERELVAAITSGDSTNYADSVKGRFTISRDNAKNTVYLQMNSLKPEDTAVYYCAASRFGAYYWGQGTQVTVSS,high polyreactivity
16,QVQLVESCGGLVQAGGSLRLSCADSGRTIYVNAMGCYRQAPGKERELVARITSGGSTYYADSVKGRFTISRDNAKNTVYLQMNSLTPEDTAVLYCAKKYIGYQDWIHSTRRYDYWGQGTQVTVSS,low polyreactivity
17,QVQLVESCGGLVQAGGSLRLSCADSGYTFTTYVMGWYRQAPGKERELVAAISRRGTSTRYADSVKGRFTISRDNAKNTVYFQMNSLKPEDTAVYYCAARSSVPNRFTRDGYWGQGTQVTVSS,high polyreactivity
18,QVQLVESCGGLVQAGGSLRLSCDASGITFNYNAMGWYRQAPGKERELVARITWSGTRTYYADSVKGRFTISRDNAKNTVYLQMNSLKPEDTAVYYCNAGPYARYYWGQGTQVTVSS,high polyreactivity
19,QVQLVESCGGLVQPGGSLRLSCAASGSILKSYAMGWYRKAPGKERELVAAITYRDGSTYYADSVKGRFTISRDNSKNTVYLQMNSLKPEDTAVYYCAAEPSWWNVFYPGYNYWGQGTQVTVSS,high polyreactivity
20,QVQLVESCGGLVQPGGSLRLSCAASGSTFVNYAMGWYRQAPGKERELVAAITRGVRTYYADSVKGRFTISRDNAKNTVYLQMNSLKAEDTAVYYCNRAIGPYSYPDNYWGQGTQVTVSS,high polyreactivity
21,QVQLVESCVGLVQAGGSLRLSCAASGRIFSRYAMGWYRQAPGKERELVADITWSGGRPYYADSVKGRFTISRDNAKNTVYLQMNSLKPEDTAVYDCAATGGFSWSRDYWGLGTQVTVSS,low polyreactivity
